Source: patent US20090054344A1

Target: αvβ3 integrin on C-PAE cells (bovine) (UniProt P80746)
Test: C-PAE attachment to plates coated with 293-produced Tumstatin; 10 µg/ml peptide; competitor is the Tumstatin coat

αvβ3 integrin on C-PAE cells (bovine), sequence (P80746 31-1048): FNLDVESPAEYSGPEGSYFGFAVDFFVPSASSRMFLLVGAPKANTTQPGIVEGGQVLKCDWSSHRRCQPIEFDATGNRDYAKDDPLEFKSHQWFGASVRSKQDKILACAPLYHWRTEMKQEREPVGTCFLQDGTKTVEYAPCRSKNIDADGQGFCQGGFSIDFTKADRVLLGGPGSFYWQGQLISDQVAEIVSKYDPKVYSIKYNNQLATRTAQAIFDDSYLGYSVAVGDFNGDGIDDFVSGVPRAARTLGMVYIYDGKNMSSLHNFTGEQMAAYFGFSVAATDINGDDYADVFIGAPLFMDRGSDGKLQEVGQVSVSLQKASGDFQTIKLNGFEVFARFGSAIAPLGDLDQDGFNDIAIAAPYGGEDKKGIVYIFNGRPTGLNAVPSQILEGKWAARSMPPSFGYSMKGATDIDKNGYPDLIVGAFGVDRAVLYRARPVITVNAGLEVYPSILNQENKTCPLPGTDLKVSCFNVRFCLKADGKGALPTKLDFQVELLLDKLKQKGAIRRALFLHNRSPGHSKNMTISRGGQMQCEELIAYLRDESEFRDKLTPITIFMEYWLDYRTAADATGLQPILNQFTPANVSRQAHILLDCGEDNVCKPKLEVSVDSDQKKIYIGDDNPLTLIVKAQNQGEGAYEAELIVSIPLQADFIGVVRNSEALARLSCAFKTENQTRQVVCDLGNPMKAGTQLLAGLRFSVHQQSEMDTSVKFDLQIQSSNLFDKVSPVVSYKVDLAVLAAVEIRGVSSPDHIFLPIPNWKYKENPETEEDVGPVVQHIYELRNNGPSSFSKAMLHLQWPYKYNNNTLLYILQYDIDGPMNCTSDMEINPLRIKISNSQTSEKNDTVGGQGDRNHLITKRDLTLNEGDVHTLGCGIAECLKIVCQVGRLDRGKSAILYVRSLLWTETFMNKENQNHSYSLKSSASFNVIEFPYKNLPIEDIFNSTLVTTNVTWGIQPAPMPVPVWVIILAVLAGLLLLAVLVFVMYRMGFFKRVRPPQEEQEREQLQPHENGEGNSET

% inhibition of cell attachment: 46.4%
Binder: LQRFTTMPFLFCNVNDVCNF [T3 peptide]
